Source: the supplement of paper PMC5998384

Tests used:
HeLa Kyoto [1] = test: solubility in G1/S (NP-40 vs SDS abundance) (log2 ratio); higher = more soluble; settings: cell cycle stage: G1/S
HeLa Kyoto [2] = test: melting temperature (median over replicates), in situ; higher = more thermally stable
HeLa Kyoto [3] = test: solubility change mitosis vs G1/S (difference of NP-40 vs SDS log2 ratios) (log2 ratio difference); higher = more soluble in mitosis
HeLa Kyoto [4] = test: thermal stability score vs G1/S (z-score of summed log2 fold changes over temperatures); higher = more thermally stable than in G1/S
[5] = cell cycle stage: early G1 (4.5 h after nocodazole release)
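For melting temperature (median over replicates), in situ in this document: HeLa Kyoto cells synchronized by double thymidine or nocodazole block, proteins quantified by TMT10plex mass spectrometry, three independent biological replicates.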
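For solubility change mitosis vs G1/S (difference of NP-40 vs SDS log2 ratios) in this document: synchronized HeLa Kyoto cells (double thymidine block for G1/S, nocodazole release for mitosis), protein amounts in NP-40 versus SDS lysates quantified by mass spectrometry, three biological replicates.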
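For solubility in G1/S (NP-40 vs SDS abundance) in this document: HeLa Kyoto cells arrested at G1/S by double thymidine block, proteins quantified by TMT10plex mass spectrometry in mild NP-40 versus SDS extracts, three biological replicates.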
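For thermal stability score vs G1/S (z-score of summed log2 fold changes over temperatures) in this document: synchronized HeLa Kyoto cells, proteins quantified by TMT10plex mass spectrometry, three biological replicates, mitosis taken 0.5 h after nocodazole release, G1/S directly after double thymidine block.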

**Q.** “MQGPPLLTAAHLLCVCTAALAVAPGPRFLVTAPGIIRPGGNVTIGVELLEHCPSQVTVKAELLKTASNLTVSVLEAEGVFEKGSFKTLTLPSLPLNSADEIYELRVTGRTQDEILFSNSTRLSFETKRISVFIQTDKALYKPKQEVKFRIVTLFSDFKPYKTSLNILIKDPKSNLIQQWLSQQSDLGVISKTFQLSSHPILGDWSIQVQVNDQTYYQSFQVSEYVLPKFEVTLQTPLYCSMNSKHLNGTITAKYTYGKPVKGDVTLTFLPLSFWGKKKNITKTFKINGSANFSFNDEEMKNVMDSSNGLSEYLDLSSPGPVEILTTVTESVTGISRNVSTNVFFKQHDYIIEFFDYTTVLKPSLNFTATVKVTRADGNQLTLEERRNNVVITVTQRNYTEYWSGSNSGNQKMEAVQKINYTVPQSGTFKIEFPILEDSSELQLKAYFLGSKSSMAVHSLFKSPSKTYIQLKTRDENIKVGSPFELVVSGNKRLKELSYMVVSRGQLVAVGKQNSTMFSLTPENSWTPKACVIVYYIEDDGEIISDVLKIPVQLVFKNKIKLYWSKVKAEPSEKVSLRISVTQPDSIVGIVAVDKSVNLMNASNDITMENVVHELELYNTGYYLGMFMNSFAVFQECGLWVLTDANLTKDYIDGVYDNAEYAERFMEENEGHIVDIHDFSLGSSPHVRKHFPETWIWLDTNMGYRIYQEFEVTVPDSITSWVATGFVISEDLGLGLTTTPVELQAFQPFFIFLNLPYSVIRGEEFALEITIFNYLKDATEVKVIIEKSDKFDILMTSNEINATGHQQTLLVPSEDGATVLFPIRPTHLGEIPITVTALSPTASDAVTQMILVKAEGIEKSYSQSILLDLTDNRLQSTLKTLSFSFPPNTVTGSERVQITAIGDVLGPSINGLASLIRMPYGCGEQNMINFAPNIYILDYLTKKKQLTDNLKEKALSFMRQGYQRELLYQREDGSFSAFGNYDPSGSTWLSAFVLRCFLEADPYIDIDQNVLHRTYTWLKGHQKSNGEFWDPGRVIHSELQGGNKSPVTLTAYIVTSLLGYRKYQPNIDVQESIHFLESEFSRGISDNYTLALITYALSSVGSPKAKEALNMLTWRAEQEGGMQFWVSSESKLSDSWQPRSLDIEVAAYALLSHFLQFQTSEGIPIMRWLSRQRNSLGGFASTQDTTVALKALSEFAALMNTERTNIQVTVTGPSSPSPVKFLIDTHNRLLLQTAELAVVQPTAVNISANGFGFAICQLNVVYNVKASGSSRRRRSIQNQEAFDLDVAVKENKDDLNHVDLNVCTSFSGPGRSGMALMEVNLLSGFMVPSEAISLSETVKKVEYDHGKLNLYLDSVNETQFCVNIPAVRNFKVSNTQDASVSIVDYYEPRRQAVRSYNSEVKLSSCDLCSDVQGCRPCEDGASGSHHHSSVIFIFCFKLLYFMELWL [CD109]” was tested. Which “solubility in G1/S (log2)” value (HeLa Kyoto [1]) did it give?
**A.** -0.179

**Q.** And the melting temperature (HeLa Kyoto [2]; cell cycle stage: G1/S)?
**A.** 57.6 °C

**Q.** What about the melting temperature (HeLa Kyoto [2]; cell cycle stage: mitosis) of the same sequence?
**A.** 63.2 °C

**Q.** And the “solubility change mitosis (log2)” value (HeLa Kyoto [3])?
**A.** -0.257

**Q.** What about the thermal stability score (HeLa Kyoto [4]; [5]) of the same sequence?
**A.** -0.942

**Q.** And the thermal stability score (HeLa Kyoto [4]; cell cycle stage: mitosis)?
**A.** 1.58

**Q.** How did the “solubility in G1/S (log2)” value (HeLa Kyoto [1]) turn out when “MFPAAPSPRTPGTGSRRGPLAGLGPGSTPRTASRKGLPLGSAVSSPVLFSPVGRRSSLSSRGTPTRMFPHHSITESVNYDVKTFGSSLPVKVMEALTLAEVDDQLTINIDEGGWACLVCKEKLIIWKIALSPITKLSVCKELQLPPSDFHWSADLVALSYSSPSGEAHSTQAVAVMVATREGSIRYWPSLAGEDTYTEAFVDSGGDKTYSFLTAVQGGSFILSSSGSQLIRLIPESSGKIHQHILPQGQGMLSGIGRKVSSLFGILSPSSDLTLSSVLWDRERSSFYSLTSSNISKWELDDSSEKHAYSWDINRALKENITDAIWGSESNYEAIKEGVNIRYLDLKQNCDGLVILAAAWHSADNPCLIYYSLITIEDNGCQMSDAVTVEVTQYNPPFQSEDLILCQLTVPNFSNQTAYLYNESAVYVCSTGTGKFSLPQEKIVFNAQGDSVLGAGACGGVPIIFSRNSGLVSITSRENVSILAEDLEGSLASSVAGPNSESMIFETTTKNETIAQEDKIKLLKAAFLQYCRKDLGHAQMVVDELFSSHSDLDSDSELDRAVTQISVDLMDDYPASDPRWAESVPEEAPGFSNTSLIILHQLEDKMKAHSFLMDFIHQVGLFGRLGSFPVRGTPMATRLLLCEHAEKLSAAIVLKNHHSRLSDLVNTAILIALNKREYEIPSNLTPADVFFREVSQVDTICECLLEHEEQVLRDAPMDSIEWAEVVINVNNILKDMLQAASHYRQNRNSLYRREESLEKEPEYVPWTATSGPGGIRTVIIRQHEIVLKVAYPQADSNLRNIVTEQLVALIDCFLDGYVSQLKSVDKSSNRERYDNLEMEYLQKRSDLLSPLLSLGQYLWAASLAEKYCDFDILVQMCEQTDNQSRLQRYMTQFADQNFSDFLFRWYLEKGKRGKLLSQPISQHGQLANFLQAHEHLSWLHEINSQELEKAHATLLGLANMETRYFAKKKTLLGLSKLAALASDFSEDMLQEKIEEMAEQERFLLHQETLPEQLLAEKQLNLSAMPVLTAPQLIGLYICEENRRANEYDFKKALDLLEYIDEEEDININDLKLEILCKALQRDNWSSSDGKDDPIEVSKDSIFVKILQKLLKDGIQLSEYLPEVKDLLQADQLGSLKSNPYFEFVLKANYEYYVQGQI [NUP133]” was run?
**A.** -0.454

**Q.** What about the melting temperature (HeLa Kyoto [2]; cell cycle stage: G1/S) of the same sequence?
**A.** 51.9 °C

**Q.** What about the melting temperature (HeLa Kyoto [2]; cell cycle stage: mitosis) of the same sequence?
**A.** 49.6 °C

**Q.** What about the “solubility change mitosis (log2)” value (HeLa Kyoto [3]) of the same sequence?
**A.** 0.284

**Q.** What about the thermal stability score (HeLa Kyoto [4]; [5]) of the same sequence?
**A.** -2.95

**Q.** What about the thermal stability score (HeLa Kyoto [4]; cell cycle stage: mitosis) of the same sequence?
**A.** -2.97

**Q.** With “MAQFDTEYQRLEASYSDSPPGEEDLLVHVAEGSKSPWHHIENLDLFFSRVYNLHQKNGFTCMLIGEIFELMQFLFVVAFTTFLVSCVDYDILFANKMVNHSLHPTEPVKVTLPDAFLPAQVCSARIQENGSLITILVIAGVFWIHRLIKFIYNICCYWEIHSFYLHALRIPMSALPYCTWQEVQARIVQTQKEHQICIHKRELTELDIYHRILRFQNYMVALVNKSLLPLRFRLPGLGEAVFFTRGLKYNFELILFWGPGSLFLNEWSLKAEYKRGGQRLELAQRLSNRILWIGIANFLLCPLILIWQILYAFFSYAEVLKREPGALGARCWSLYGRCYLRHFNELEHELQSRLNRGYKPASKYMNCFLSPLLTLLAKNGAFFAGSILAVLIALTIYDEDVLAVEHVLTTVTLLGVTVTVCRSFIPDQHMVFCPEQLLRVILAHIHYMPDHWQGNAHRSQTRDEFAQLFQYKAVFILEELLSPIVTPLILIFCLRPRALEIIDFFRNFTVEVVGVGDTCSFAQMDVRQHGHPQWLSAGQTEASVYQQAEDGKTELSLMHFAITNPGWQPPRESTAFLGFLKEQVQRDGAAASLAQGGLLPENALFTSIQSLQSESEPLSLIANVVAGSSCRGPPLPRDLQGSRHRAEVASALRSFSPLQPGQAPTGRAHSTMTGSGVDARTASSGSSVWEGQLQSLVLSEYASTEMSLHALYMHQLHKQQAQAEPERHVWHRRESDESGESAPDEGGEGARAPQSIPRSASYPCAAPRPGAPETTALHGGFQRRYGGITDPGTVPRVPSHFSRLPLGGWAEDGQSASRHPEPVPEEGSEDELPPQVHKV [ATG9A]” as the sequence, how does the “solubility in G1/S (log2)” value (HeLa Kyoto [1]) read?
**A.** 0.0202

**Q.** What about the melting temperature (HeLa Kyoto [2]; cell cycle stage: G1/S) of the same sequence?
**A.** 52 °C

**Q.** And the melting temperature (HeLa Kyoto [2]; cell cycle stage: mitosis)?
**A.** 51.8 °C

**Q.** And the “solubility change mitosis (log2)” value (HeLa Kyoto [3])?
**A.** -0.221

**Q.** And the thermal stability score (HeLa Kyoto [4]; [5])?
**A.** -1.02

**Q.** What about the thermal stability score (HeLa Kyoto [4]; cell cycle stage: mitosis) of the same sequence?
**A.** -0.681

**Q.** What does the source list for “MVWDRQTKMEYEWKPDEQGLQQILQLLKESQSPDTTIQRTVQQKLEQLNQYPDFNNYLIFVLTKLKSEDEPTRSLSGLILKNNVKAHFQNFPNGVTDFIKSECLNNIGDSSPLIRATVGILITTIASKGELQNWPDLLPKLCSLLDSEDYNTCEGAFGALQKICEDSAEILDSDVLDRPLNIMIPKFLQFFKHSSPKIRSHAVACVNQFIISRTQALMLHIDSFIENLFALAGDEEPEVRKNVCRALVMLLEVRMDRLLPHMHNIVEYMLQRTQDQDENVALEACEFWLTLAEQPICKDVLVRHLPKLIPVLVNGMKYSDIDIILLKGDVEEDETIPDSEQDIRPRFHRSRTVAQQHDEDGIEEEDDDDDEIDDDDTISDWNLRKCSAAALDVLANVYRDELLPHILPLLKELLFHHEWVVKESGILVLGAIAEGCMQGMIPYLPELIPHLIQCLSDKKALVRSITCWTLSRYAHWVVSQPPDTYLKPLMTELLKRILDSNKRVQEAACSAFATLEEEACTELVPYLAYILDTLVFAFSKYQHKNLLILYDAIGTLADSVGHHLNKPEYIQMLMPPLIQKWNMLKDEDKDLFPLLECLSSVATALQSGFLPYCEPVYQRCVNLVQKTLAQAMLNNAQPDQYEAPDKDFMIVALDLLSGLAEGLGGNIEQLVARSNILTLMYQCMQDKMPEVRQSSFALLGDLTKACFQHVKPCIADFMPILGTNLNPEFISVCNNATWAIGEISIQMGIEMQPYIPMVLHQLVEIINRPNTPKTLLENTAITIGRLGYVCPQEVAPMLQQFIRPWCTSLRNIRDNEEKDSAFRGICTMISVNPSGVIQDFIFFCDAVASWINPKDDLRDMFCKILHGFKNQVGDENWRRFSDQFPLPLKERLAAFYGV [TNPO1]”?
**A.** solubility in G1/S (log2) (HeLa Kyoto [1]): -0.146; melting temperature (HeLa Kyoto [2]; cell cycle stage: G1/S): 50.3 °C; melting temperature (HeLa Kyoto [2]; cell cycle stage: mitosis): 49.7 °C; solubility change mitosis (log2) (HeLa Kyoto [3]): -0.175; thermal stability score (HeLa Kyoto [4]; [5]): 1.15; thermal stability score (HeLa Kyoto [4]; cell cycle stage: mitosis): -1.3
